According to IntAct's records for PubMed 24268649:

What follows are substances tested against ncor2_human NCOR2 (UniProt Q9Y618).
ncor2_human NCOR2, sequence (Q9Y618 whole entry): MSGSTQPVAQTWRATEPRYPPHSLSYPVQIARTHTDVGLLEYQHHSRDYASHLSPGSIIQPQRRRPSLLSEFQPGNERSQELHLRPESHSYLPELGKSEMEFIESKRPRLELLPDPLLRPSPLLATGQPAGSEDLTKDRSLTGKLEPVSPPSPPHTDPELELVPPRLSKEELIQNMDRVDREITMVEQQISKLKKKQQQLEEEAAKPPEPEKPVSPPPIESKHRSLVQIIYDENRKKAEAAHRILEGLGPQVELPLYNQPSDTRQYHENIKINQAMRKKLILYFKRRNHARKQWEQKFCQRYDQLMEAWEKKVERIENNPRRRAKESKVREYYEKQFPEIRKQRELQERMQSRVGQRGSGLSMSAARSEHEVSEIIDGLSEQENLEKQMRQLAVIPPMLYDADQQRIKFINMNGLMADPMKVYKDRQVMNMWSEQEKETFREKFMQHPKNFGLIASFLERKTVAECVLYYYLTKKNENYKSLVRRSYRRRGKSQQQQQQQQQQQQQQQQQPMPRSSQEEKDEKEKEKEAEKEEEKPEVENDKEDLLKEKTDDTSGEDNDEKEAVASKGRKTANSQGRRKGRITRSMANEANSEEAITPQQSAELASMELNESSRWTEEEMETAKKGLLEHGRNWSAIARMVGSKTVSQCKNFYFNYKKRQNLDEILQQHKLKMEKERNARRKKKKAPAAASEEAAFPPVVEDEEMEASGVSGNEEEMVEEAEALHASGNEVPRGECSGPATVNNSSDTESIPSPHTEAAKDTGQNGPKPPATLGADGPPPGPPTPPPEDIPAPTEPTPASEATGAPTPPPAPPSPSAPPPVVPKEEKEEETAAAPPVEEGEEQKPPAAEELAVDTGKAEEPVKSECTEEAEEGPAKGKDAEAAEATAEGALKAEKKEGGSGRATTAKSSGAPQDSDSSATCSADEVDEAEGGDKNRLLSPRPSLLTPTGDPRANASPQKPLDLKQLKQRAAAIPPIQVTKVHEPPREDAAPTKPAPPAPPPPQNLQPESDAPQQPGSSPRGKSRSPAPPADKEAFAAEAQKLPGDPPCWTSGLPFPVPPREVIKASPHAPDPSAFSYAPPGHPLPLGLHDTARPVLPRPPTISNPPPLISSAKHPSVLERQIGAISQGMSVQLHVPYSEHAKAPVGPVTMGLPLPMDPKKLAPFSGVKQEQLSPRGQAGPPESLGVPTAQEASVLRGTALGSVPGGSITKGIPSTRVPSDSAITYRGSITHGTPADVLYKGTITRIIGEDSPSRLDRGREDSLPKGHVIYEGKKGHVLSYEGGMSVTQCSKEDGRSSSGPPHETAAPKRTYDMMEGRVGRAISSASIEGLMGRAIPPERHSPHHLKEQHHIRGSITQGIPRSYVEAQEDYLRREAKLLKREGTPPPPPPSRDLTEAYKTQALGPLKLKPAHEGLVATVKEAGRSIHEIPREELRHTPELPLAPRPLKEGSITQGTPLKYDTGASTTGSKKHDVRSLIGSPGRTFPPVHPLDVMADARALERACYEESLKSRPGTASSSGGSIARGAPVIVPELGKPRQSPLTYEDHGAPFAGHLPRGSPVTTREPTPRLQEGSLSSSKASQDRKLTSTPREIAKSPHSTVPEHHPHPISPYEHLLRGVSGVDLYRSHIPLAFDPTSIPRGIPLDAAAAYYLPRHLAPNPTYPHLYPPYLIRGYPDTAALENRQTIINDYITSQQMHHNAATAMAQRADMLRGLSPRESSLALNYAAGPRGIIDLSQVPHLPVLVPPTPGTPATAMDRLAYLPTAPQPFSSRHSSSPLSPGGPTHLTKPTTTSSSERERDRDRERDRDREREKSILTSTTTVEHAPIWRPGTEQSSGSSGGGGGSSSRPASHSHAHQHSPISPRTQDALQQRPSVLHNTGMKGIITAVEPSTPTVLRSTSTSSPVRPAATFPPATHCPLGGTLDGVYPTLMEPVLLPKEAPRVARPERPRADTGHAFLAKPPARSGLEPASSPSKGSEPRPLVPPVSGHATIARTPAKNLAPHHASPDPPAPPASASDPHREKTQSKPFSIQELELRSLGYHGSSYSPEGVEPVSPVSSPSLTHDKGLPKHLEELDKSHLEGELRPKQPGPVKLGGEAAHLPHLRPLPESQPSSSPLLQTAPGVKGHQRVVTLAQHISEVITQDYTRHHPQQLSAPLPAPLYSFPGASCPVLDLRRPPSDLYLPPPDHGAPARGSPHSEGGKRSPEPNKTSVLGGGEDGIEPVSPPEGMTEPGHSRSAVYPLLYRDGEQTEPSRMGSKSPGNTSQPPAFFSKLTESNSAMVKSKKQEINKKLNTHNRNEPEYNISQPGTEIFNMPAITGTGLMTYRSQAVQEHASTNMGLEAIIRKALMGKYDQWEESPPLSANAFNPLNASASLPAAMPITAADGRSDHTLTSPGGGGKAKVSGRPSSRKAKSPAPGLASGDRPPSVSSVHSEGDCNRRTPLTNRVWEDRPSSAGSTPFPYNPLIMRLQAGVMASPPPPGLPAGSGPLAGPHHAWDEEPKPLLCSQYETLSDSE

Substance | effect of a mutation on the interaction
Msx2-interacting protein (Homo sapiens), Q96T58 K3516A | disrupting interaction strength
Msx2-interacting protein (Homo sapiens), Q96T58 K3606A | disrupting interaction strength
Msx2-interacting protein (Homo sapiens), Q96T58 L3515A | decreasing interaction strength
Msx2-interacting protein (Homo sapiens), Q96T58 M3553A | decreasing interaction strength
Msx2-interacting protein (Homo sapiens), Q96T58 Q3551A | decreasing interaction strength
Msx2-interacting protein (Homo sapiens), Q96T58 R3548A | decreasing interaction strength
Msx2-interacting protein (Homo sapiens), Q96T58 R3552A | disrupting interaction strength
Msx2-interacting protein (Homo sapiens), Q96T58 R3552K | decreasing interaction strength
Msx2-interacting protein (Homo sapiens), Q96T58 R3554A | decreasing interaction strength
Msx2-interacting protein (Homo sapiens), Q96T58 Y3602A | decreasing interaction strength
